Reference: the DeepSol protein solubility set

assay: soluble on expression in E. coli; label from the status in PepcDB or PDB records

Sequence	soluble on expression in E. coli
MGSDKIHHHHHHMIVVKPSPGSAQSIPANANGPKWDVGEAVSQLSWDDLRIIKTLSDCSNRAATAKKLGINVSTVSRRVAQVEKTLGVALFDHRKAGYLLTAEGVELRALAERVELDIVSVTRRVSRAGQGPLGKLRITTSDSLLLYFLTPIIADFKALNEGITIEVLVGNQTLSLARDESDIAVRATKKPTDTLVGRKLANIAWAAYGSVKQAAITDPFAEGQAWVSYSGGLCGLKATSYVECRVPSELISYRTDSVAAASAAIAAGLGFGFLPCMLGDITPGLVRAGPVVQELQDELWLLTHQDIRKSWRVKAFMTFCAAAVADLKPLVEGQQAIPAS	not soluble
MAAAAARSTSPFEIRHAVTIAAPPEAVFDYVTNPKSWPEWLPSSHALECDDRPMGFGDTFHEHWSTRSGPVDLDWLVIACDRPLLWIGLTQTSFMGPVVVHYTFEAVDDGTRFTRILRNPARPKPPTAEMIERMSTEAELGLGNIKRIVERR	not soluble
MSLSLDESNTALAEEFDNWDLEFKLWELVDRLFRFRALFSNKAKTELLREYDFSSMGIKQENFLRKNPAIRELSIIILWLQSHTPSLVGDETESYQTKWKNTAMAVANSDFDVLASRATDADLIDKLDIDAPLRSNRSIHPADESNDSKVFAQIYKLLLQDRVQDAIDIANNTGNYALALILVGATQEYFDPVLDKEGHHHHHH	soluble
MAAKPILYSSWSSGCSSRVRTALALKKIDYEYQPVNLLNKQKEQEFHGNNPAEKVPILKINGLTLTESMAIIEYLDEIYPDPPLLPKEPELKARARAIAFHIASNIQPLQNKPIYLMLNEKEPGYGDFWCQHFISKGFKALEELLQMHSGDFCVGNQISIADICLPSIVYNAIEKYHVDMTPYPIITRISNKLAELPEFQVAHPNNQPDAPKN	not soluble
MGSDKIHHHHHHMSFELHPRYLEVHLHGRLCGFLCEAGGNTRFVPTDEYRGDNERYTLSLSITLPTEIGREATSAVFDNAFHPAIYNTGGELPPYFAGLLPEGELRKRLESTRTNPEDKDDFGVLASAGNDLPGAIVVKPADVRALPGYVRTYGVTGGADNLEIAVVEGATEGAASVSGVQNKLALSTMRKGERYTLPTKGKVSDIIAKLPAKNDDSQVFNEYVSMHLAAAAGVNIAPIQVLPMSSIDVPDLADLMGKGLHYLAVERFDRAADGGLLHAEDGCQMLGRMPNRKYAKREEYIRLLAALYRLSPKGFENVRQFFLRQAVNTLIGNSDAHLKNFSVIYRDRKLPELSPAYDIVCVAALPNFTSYGQNVAIDEIQRKETMDLYEDIADKAGIPRRIATAAVKEAVSMAHAHWPGLLEKMGASQALRDVIAERLENLPLAKVGRPTRKGA	not soluble
MVVQVQPVEVDVESLVTRVFLKAIDLLGGLHKLAEYRTLTWLPSLARAAFVIVYREEFLKTEEEIAELVGLTRQTVRNILRADPELALYKIQHIDELTKEEKKELRVHTAGGIAKLAYKKVKEGEEPKVFLEFCTMAAEALEVPWAYLLLKKIKGTHFPINSPEELKEKVKGVVIKGMPAEEVVEKIEYPVKNPADLLHKIKIHLKMMGVE	soluble
MSLAYKGYLIDLDGTIYKGKSRIPAGERFIERLQEKGIPYMLVTNNTTRTPESVQEMLRGFNVETPLETIYTATMATVDYMNDMNRGKTAYVIGEEGLKKAIADAGYVEDTKNPAYVVVGLDWNVTYDKLATATLAIQNGALFIGTNPDLNIPTERGLLPGAGSLNALLEAATRIKPVFIGKPNAIIMNKALEILNIPRNQAVMVGDNYLTDIMAGINNDIDTLLVTTGFTTVEEVPDLPIQPSYVLASLDEWTFNEGHHHHHH	soluble
MPDIFQQEARGWLRCGAPPFAGAVAGLTTKHGGESKGPFASLNMGLHVGDDRTDVVNNRRRLAEWLAFPLERWVCCEQVHGADIQKVTKSDRGNGAQDFATAVPGVDGLYTDEAGVLLALCFADCVPIYFVAPSAGLVGLAHAGWRGTAGGIAGHMVWLWQTREHIAPSDIYVAIGPAIGPCCYTVDDRVVDSLRPTLPPESPLPWRETSPGQYALDLKEANRLQLLAAGVPNSHIYVSERCTSCEEALFFSHRRDRGTTGRMLAFIGRREEWT	soluble
MAKKDEVGGRVLQDVFLDWAKKYGPVVRVNVFHKTSVIVTSPESVKKFLMSTKYNKDSKMYRALQTVFGERLFGQGLVSECNYERWHKQRRVIDLAFSRSSLVSLMETFNEKAEQLVEILEAKADGQTPVSMQDMLTYTAMDILAKAAFGMETSMLLGAQKPLSQAVKLMLEGITASRNTLAKFLPGKRKQLREVRESIRFLRQVGRDWVQRRREALKRGEEVPADILTQILKAEEGAQDDEGLLDNFVTFFIAGHETSANHLAFTVMELSRQPEIVARLQAEVDEVIGSKRYLDFEDLGRLQYLSQVLKESLRLYPPAWGTFRLLEEETLIDGVRVPGNTPLLFSTYVMGRMDTYFEDPLTFNPDRFGPGAPKPRFTYFPFSLGHRSCIGQQFAQMEVKVVMAKLLQRLEFRLVPGQRFGLQEQATLKPLDPVLCTLRPRGWQPAPPPPPCHHHH	soluble
MGKLFGTFGVRGIANEKITPEFAMKIGMAFGTLLKREGRKKPLVVVGRDTRVSGEMLKEALISGLLSVGCDVIDVGIAPTPAVQWATKHFNADGGAVITASHNPPEYNGIKLLEPNGMGLKKEREAIVEELFFKEDFDRAKWYEIGEVRREDIIKPYIEAIKSKVDVEAIKKRKPFVVVDTSNGAGSLTLPYLLRELGCKVITVNAQPDGYFPARNPEPNEENLKEFMEIVKALGADFGVAQDGDADRAVFIDENGRFIQGDKTFALVADAVLKEKGGGLLVTTVATSNLLDDIAKKHGAKVMRTKVGDLIVARALYENNGTIGGEENGGVIFPEHVLGRDGAMTVAKVVEIFAKSGKKFSELIDELPKYYQIKTKRHVEGDRHAIVNKVAEMARERGYTVDTTDGAKIIFEDGWVLVRASGTEPIIRIFSEAKSKEKAQEYLNLGIELLEKALS	soluble
MGSDKIHHHHHHMRVKHFELLTDEGKTFTHVDLYGKYTILFFFPKAGTSGCTREAVEFSRENFEKAQVVGISRDSVEALKRFKEKNDLKVTLLSDPEGILHEFFNVLENGKTVRSTFLIDRWGFVRKEWRRVKVEGHVQEVKEALDRLIEEDLSLNKHIEWRRARRALKKDRVPREELELLIKAAHLAPSCMNNQPWRFVVVDEEELLKKIHEALPGGNYWMKNAPALIAVHSKKDFDCALPDNRDYFLFDTGLAVGNLLVQATQMGLVAHPVAGYDPVKVKEILKIPEDHVLITLIAVGYLGDESELSEKHRELERSERVRKELSEIVRWNL	not soluble
MGSDKIHHHHHHMLSRPVRILIADEIGLGKTIQALAIARYLELQGEAKKILILVPKILREQWKQEIRRLGGKPVVITNGSEVERKLLRKATFNNAAEYFVVSIDLAKSQNHSEKFSAIDWDLLIVDEVHNVTYNTQRYNFLKSLIEKSKEDLNIVFLSATPHRGNPKDYIERLRLLDPTLTADWNALDSEKFYRRTHGVLVFRRTKKVVNDLEKREIFKKCDFNAVIVDITEEEKRFFEELDEVLFEMVKDVHMNSPVALLAVLLRKRAASSYESALKTINNIIKNQYSGASGEDVLEDQIKQIFGLGYDEMELEENSEIDDLISSIINSVAKRYPLDKGQINALEKILKIGKAIGKNDSKLKTLAEVLAYHLKKNEKVIVFTEFKDTLEYLRNNLPTLLEQEGIHLSEEKDISVLHGGMKSEEIEKQVEKFANDGKLLISTDVASEGLNLQVANILINYEIPWSPIKLEQRVGRIWRLNQTKETIAYTLLLNHEADLQILESLYQKILNITDAVGTGPNVGKPVFGTRTLSGNFEYRLENVQDEETSDSPVSEFELMLSAIKRRNLDEQTKRIISTLKSLRTKIEEVVPLNTCNEIQEELNSVLLPDDMESEIVFEKLKKYISVFENSFINSIGSYLFKILTDRIHEPLLNEKCLKIAVKNESKEYRLFQVEVIDRGRKIYEYPVLIEIGGNVSPQLYRGTSLLEKLADVFSKEWFVIEWANPKEKMDIQTAKLIDRSAKDLQSIMDKHTDYDIKLNESLMKTDSLFRRLNTRSSEILRVEGLSDREFSVFKLLHPSILEILGLSLDSIELPPSDYEKWMERSFVPLEDILESERKAMEIVMDIEKKRLIEKYGESSDWKVEDVSLKEHYDIKVSEPEGEKYIEVKGHKPLWLSAELTAAEHRFANDNRDRYWIYIVSNLGGKKPVILKIFSPFDDEKRKIYLVHENKDIDITEIFGSTIKTKQRYVISLGQKIYRRR	not soluble
RRLIRLSDKTIAKSLNTSKFGGDELRRIGFHIRFHRAGALFARCWLLVEGETEVWLFNELARQCGYDLAAEGVQIVEFAQSGLRSLIKVAKEFGIDWHVVTDGDPAGKKYAHTVRAQLGHDQERHRLTELPDRDIEHFLYNHGFELFFKDMIKVPHDHPIPAKKVVNRVLKKHAKPDLALAIVSHCEEKGMECIPVLLRWTLKRIVTMASGNT	not soluble
